Here are results for six molecules from patent US20240026407A1, “MODIFICATION OF SAPONINS” (GLAXOSMITHKLINE BIOLOGICALS SA, priority 2020, published 2024).

B1: 1037 (protein, listed as Pedobacter heparinus)
chain: MNLKRHILLTAILMLNLSIAFSQVTLQNLRCEMLQNPLGIDVARPRLSWQIASTRNDVQQTAYHILVASSLAKLTENDADIWNSGKVNSAESLYNLYAGQTLKSKNKYYWKVKVYTSKGESSWSQPAFWLMGLLHYKDWEGRWIGFDRFFTGDNEAGARLSARYFRKEFSTTKTVASATAYLMGMGLYELYIDGQKIGDQVLAPTATDYTKNIKYNTLDVTEQLRQGGNHAIGVILGNGRFFAMRQSKAYKVKTFGLPKLLLQVNIKYTDGSTATIKTDDTWKGTADGPILANNEYDGEIYDARKEFKGWSEPGFKEDKWLRAEYVQEPGGTYEAQLNEGMKVMKTLSPVSITRRPNGNYILDFGQNFSGWVKFNVKGPRGTSVSLRFAESLEPNGELFRTNLRDARATDIYTLKGEGTETWAPRFTYQGFRYVELNGYPGVPQKSDFSGCLVYDDMKTAGTFESSNSLLNQIFKNAWWGIASNYKGMPVDCPQRNERQPWLGDRTVGAYGESFLFDNTALYKKWLDDIRYAQKEDGAIPDVAPAFWRYYSDNVTWPATLLFVADMLYRQTGDSTVIRKNYPAVKKWMSYMKDRYMSSEGIMTKDSYGDWCAPPATAEDGKGVNADQKHPSALIATAYYYHLANMMAGYSALTGNAGDREGYTRLAAEVKNAFNRKFYNSQGYYGDNKLTDNLLPVYFGLVEEADKGRVVMQICSIIEEKNNGHLSTGLIGTQFLMRTLTEAGRPDLAYRIASQKTYPSWGYMIENGATAIWELWNGNTAAPKMNSQNHVMMLGDLMIWYYENLAGIKAAAPGFKEITMKPELIEGLNNVTAGYQSVYGLIKSSWTKTGKKFSWNISIPPNTRAKAYLPASMQSQVKKGATADGAKYIMAENGRVVFELKSGEYAFVVEQ
B2: 1029 (protein, listed as Rhodococcus jostii)
chain: MTTPTHLRLEHLRPGEPCGTTHPRLSWRLPTGSTGQQAYQVRVAGAFDRTSSTLFTTEIIEGRDHVLVRPWTATHPAPTAGEARTWQVRCWTDLGPSDWSEPATWVTGLLHGGDLTADWIEPYEPDVPPLGHRPVYRLRASWRPRAEIAHASLFATAHGIYEFFVNDVRVGDHELTPGFTSYRAHLQVQHFDVTDLLHPEHNDLGILLSDGWFRGRHGFERHGDSFGDRVAALAELHVRYADGTSERFGTGDGWTSTPSEIDAADLMDGQRVDLRRVPAGEVRHPAVVARGGLYDDRSRLTTGVAPPVRRIETLAAVAVTEPRPGTYVVDFGQNVNGWVTAADLGPAGTHATLTHGESLAADGSVDTDHLRAFEFATGTGLPAGQVDHVVSSGRAGEAFESRHTTHGFRYVQFDGLATKPGPGSVTAAVVHTDLEQVGSFGCDNDRLAKLHAAAVWSFRGNACDVPTDCPQRERSGFTGDWQVYVETAAFTHDVAGFSDKWLRDLAADQWPDGTVPNIVPNPAGNQPSGNHFADIANGSAGWGDAAVIVPWQLWRLYGDVEVLERQYDSMTRWVERAAGAARDRRHPDRARARPTPDAHEEYLWDTGFHWGEWLEPDEIPAPDPARDHSVVATAYLARSAELLAQIAGVLGRDRDECRYAAIAAGAVRAWQREFITPEGTLTHPTQANYVRALEFDLVPAEGRRRFADELAQLLVDNDYHLGTGFLATGMLLPALARNGHLDTAYRVLLSTGNPSWMEMIDRGATTIWERWDGVDENGRATASLNHYAKGAVISFLHQFVAGLRPAETTGPHTVGYRRFVVDPRPGGDINTAHAEHCSPYGNIAVRWTIADDVFTLSLTVPSGSECELRLGDTTELLRSGTYTRTCPAARVTQRSSRASPTR
B3: 1002 (protein, listed as Flavobacterium johnsoniae)
chain: MKNFKNILLGLSFLITFISNGQILPVRLTTEMAENPLAVIENQPKFSWQLISKESDVSQVAYLILVASSEEKLNNDDGDIWNSGRVNTDKNLHIVYSGKPLKSETKYFWKVKVWNQLGKISKWSKTASFRTASLESDLNPIWIGAITKADSHLPEGRNYHTATFNREKKMSFINASDSLARRSIMLRKPFEVEKAVKEAVVYISGLGHYELTINGKKVGNSQFAPLWTDYDKTVNYNVYELSAKEFQKGDNVIGVLLGNGMYNTLAERYTKFFVSFGPPTLFFKMKIKYNDGSEEIIKSDRTWKYSKSPITYNSIFGGEDYNANLEQKDWNRKGFKDRDWKKVVIQEAPKGILRPQTAPPVTIQKQYEVKTVKELKPNFYVFDMGQNLSGFPTIKVKGKRGQTIRVWVAEGLNEEGTIAQGRSGKPYYYDYTLKGKDVEEWTPKFSFYGYQYVQIENINYKEDKNKEFPTLVDLKSNFIYNSAGEAGSFACSNEIFNKTHELINNSIKSNFQSVFTDCPQREKLGWLEEIQLNGPSLMFNYNLQTFLPATMQNISDSQRENGLIPTIVPEYVIFGGDFTDSPEWGVTGVILPWMYYEYYGDASLLEKYFPVMKNYVDYLGTKATNHIVSHGLGDWYDYGTHPAGYSKNSPIALSATSHYYYGAFLVAKASKLLGKTEDFEKYNTLASEIKTAFNAAFFNEETKQYGTSSQFSNAVPIFMDIVEPQYKEAVMQNLLADIKEKGDRLTTGDVGNRYLFQTLARNGENETMYRMHNHYDAPGYGFQIKFGLTTLTEQWDPRKGNSWNHFMLGQIEEWFYQSLAGIMSDPEKPGFKHFFIQPEVVGDMTFAKADYQSVYGKIASSWEKKDGKFILTVQIPVNTTATIKLPVAKNSEIKMDGKRVRAGFDEKAQKPVLELGSGIYTIECTI
B4: 1062 (protein, listed as Streptosporangium roseum)
chain: MIGNAVHCAPAQTSPSRSDPAPPRLTPYGLRCEHRQTPLGVGEPRPLLSWRLASARAGDDPVAYELEVGDWSSGRVEDPAAIGAVYGGPPLLPRTRYAWRVTVWARDGAEGSAESWFETGQDVWQASWIAHDPAAVAHMDPPTEGDQALSHHGLLPCPQLRTSFESTAGVTRARLLISAKGLYEARVNGHRAGDAELAPGWTDYRRRIQYQVHDVTPFLLDGENVLAATVADGWWSGFTGFDPRRPGYHYGRFPELIAELHLTFEDGSTRVVATGEGWRTGHGRVRYGDLLKGECHDARAETPGWDLPGFDDSSWRPAVVTGDDHSLLVASRDEPVRALGELLPVSSVLVRPGVHLVDFGQNIAGRVRLAVRDQEPGRRVTVRHGETLDGEDRLHTANLRTADATDVLITAGGAEEVFEPRFTYHGFRYAEVSGIDRLDDIRAIVLHSDTPWTGTFECSDPEINRLHDNIGWGQRGNFVSVPTDCPQRDERLGWLADAQVFLPTACFNADVSGFFSKWMRDVVDAQSPEGGFSNVAPLLSGVADEGAPGWADAGVLVPWHLYRVYGDDRFLDVDSMVRWVDFVARHNPDLIWRHRTGPHFADWLAPGPATPREVLATAFFHRSAALTAEAARVRGLYGEAERMGALADRVRAAFAAAFVGDGGLVEGDTQTGYLLALAFGLLTPEQGRGAAARLAALVEESGPLTGFLGVNLLCPVLSAHGRDDLAHALLRRTDPPSWLYQVRHGATTVWERWDGVGAASMNSFNHYAFGSIGEWLYSGVAGIAQAPGSVAFREVVIRPLPGDLSRAGASYESARGLISVSWHNDAEGFRLQTRIPPGATATVHLPGGETRRVTSGDHIFELVRGEKA
B5: 1000 (protein, listed as Aspergillus terreus)
chain: MALSISQVAFEHHRTALGIGETQPRVSWRFDGNVSDWEQRAYEIEVKRAGHDADVFRSESSDSVLVPWPSSPLQSGEEATVRVRSFGSDGQHDTPWSDAVTVEPGLLTPDDWHDAVVIASDRPTEVDATHRPIQFRKEFSVDDSYVSARLYITALGLYEARINDQRVGDHVMAPGWQSYQYRHEYNTYDVTDLLKQGPNAIGVTVGEGWYSGRIGYDGGKRNIYGDTLGLLSLLVVTKSDGSKLYIPSDSSWKSSTGPIISSEIYDGEEYDSRLEQKGWSQVGFNSTGWLGTHELSFPKERLASPDGPPVRRVAEHKLANVFSSASGKTVLDFGQNLVGWLRIRVKGPKGQTIRFVHTEVMENGEVATRPLRQAKATDHFTLSGEGVQEWEPSFTYHGFRYVQVDGWPADTPLDENSVTAIVVHSDMERTGYFECSNPLISKLHENILWSMRGNFFSIPTDCPQRDERLGWTGDIHAFSRTANFIYDTAGFLRAWLKDARSEQLNHSYSLPYVIPNIHGNGETPTSIWGDAIVGVPWQLYESFGDKVMLEEQYGGAKDWVDKGIVRNDVGLWDRSTFQWADWLDPKAPADDPGDATTNKYLVSDAYLLHSTDMLANISTSLSKGEEASNYTEWHAKLTKEFQKAWITSNGTMANETQTGLALPLYFDLFPSAEQAQSAAKRLVNIIKQNDYKVGTGFAGTHLLGHTLSKYGESDAFYSMLRQTEVPSWLYQVVMNGTTTWERWDSMLPNGSINPGQMTSFNHYAVGSVGSWLHEVIGGLSPAEPGWRRINIEVVPGGDLQQASTKFLTPYGMASTKWWLDGQDQSCGGFDFHLVAEVPPNTRATVVLPGKGGEKVDVGSGVHEYHVRCVKL
B6: 1048 (protein, listed as Klebsiella oxytoca)
chain: MSQAIQHNSQVMMTRHPNFLRTAEALRPALSRQAHPPIAVVEAHADAAALFGWRAEPVSTLAAFYQRELSSGDSVIIDFGSHYVGYLHFLCQSAGSPPDAPAHLQLTFGETLSEVCEPFSDYQGWLSSSWLQQQDLWLDVLPAEIDLPRRYCFRYLKVEVKAVSRKFRLQFTQIEVNAVTSASGACPAATTSDPQLRAIDNVAVLTLQNCMQEVFEDGPKRDRRLWLGDLRLQALVNDVTFARHDLVRRCLYLFAGHTREDGMVSANVFVQPDVIADDTFLFDYSLFFVDVLYNYLQSAEDMATARELWPTARRQVELALTRCDASGVVRDSDDWWVFIDWQASLNKQAAAQGVLIYCLQRAIWLAERFEPELAVSYRQRLQQLKSAALDALWDPQQGFYVSGARRQVSWASQIWLVLAEVGTPQQRREIMRNLEKNPPAVAMNTPYLRHHYIAALLQCGLRDEAIAQIKAYWGAMVDYGADTFWEIFDPAHPDFSPYGSKLINSYCHAWSCTPAWFIRQYGL

One assay in a line: Experiment 6-1: screening of rhamnosidases for derhamnosylation of saponins in treated bark extract (2%), desglucosyl-QS-17 2134 to QS-21 1988 (PAR %). As to conditions: TBE 2%, pH 7.5, 30 degC, 18 h; TIC peak area ratio percent, LCMS/MS; negative controls 2.719, 2.158. In kind it is biochemical, Quillaja saponaria.
Consider B1, for which the “Peak75 (PAR %)” value was 2.424%.
On to B2, for which the “Peak75 (PAR %)” value amounted to 2.069%.
Consider B3, for which the “Peak75 (PAR %)” value is on record as 2.538%.
Consider B4, for which the “Peak75 (PAR %)” value was determined as 2.410%.
As for B5, the “Peak75 (PAR %)” value stood at 2.788%.
B6: the “Peak75 (PAR %)” value amounted to 2.441%.

A short description of a further assay: Experiment 6-1: screening of rhamnosidases for derhamnosylation of saponins in treated bark extract (2%), QS-17 2310 to QS-18 2164 (PAR %). Type of assay: biochemical, Quillaja saponaria. As to conditions: TBE 2%, pH 7.5, 30 degC, 18 h; TIC peak area ratio percent, LCMS/MS; negative controls 3.061, 2.429.
As for B1, the “Peak57 (PAR %)” value turned out to be 2.764%.
With B2, the “Peak57 (PAR %)” value is given as 3.334%.
As for B3, the “Peak57 (PAR %)” value stood at 2.843%.
Take B4: the “Peak57 (PAR %)” value was 2.941%.
With B5, the “Peak57 (PAR %)” value is on record as 3.119%.
Take B6: the “Peak57 (PAR %)” value is 2.465%.

Another assay in a line: Experiment 6-1: screening of rhamnosidases for derhamnosylation of saponins in treated bark extract (2%), QS-17 2296 to QS-18 2150 (PAR %). Type of assay: biochemical, Quillaja saponaria. As to conditions: TBE 2%, pH 7.5, 30 degC, 18 h; TIC peak area ratio percent of rhamnosylated starting saponin to derhamnosylated product, LCMS/MS; negative controls 4.876, 5.225.
B1: the “QS-17 (PAR %)” value is 4.972%.
On the same count and under the same terms, in the case of B2 it was 4.926%; in that of B3, 4.922%; in that of B4, 4.916%.
Regarding B5, the “QS-17 (PAR %)” value came out at 5.010%.
In the case of B6, the “QS-17 (PAR %)” value stood at 5.007%.

The nature of another assay: Experiment 6-1: specificity of rhamnosidases towards other rhamnose residues (C3 saccharide rhamnose, C28 saccharide rhamnose). The conditions noted are these: TBE 2%, pH 7.5, 30 degC, 18 h; LCMS/MS; negative controls 0.18, 0.17. Type of assay: biochemical, Quillaja saponaria.
As for B1, the “ratio PP/QS-21” value was determined as 0.17.
As for B2, the “ratio PP/QS-21” value was determined as 0.16.
Consider B3, for which the “ratio PP/QS-21” value is listed as 0.16.
Same read-out and setting: the same measure for B4: 0.18; for B5: 0.16.
On to B6, for which the “ratio PP/QS-21” value was found to be 0.17.
